Measured values reported in patent publication US20150166643A1 (Alexion, published 2015).
Each block holds one binder with its values, some of them ahead of it.

What was measured:
[1] = target: T1, human factor B (purified, Complement Technology A135) (human, UniProt P00751 26-764); assay: cell-based or functional assay
[2] = target: T1, human factor B (purified, Complement …); assay: SPR (Biacore), CLS012 captured on anti-Fc surface, soluble factor B 3.1-200 nM flowed; Chi2 6.74, fitted lines depart visibly from the data (the text calls the fits poor)
Text: (§1) Binding kinetics of mAbs were further characterized using Biacore's Surface Plasmon Resonance (SPR) technology (GE Healthcare, Piscataway, N.J.). For a detailed description of SPR and its applications in affinity measurement, please see Karlsson and Larsson, Antibody Engineering: Methods and Protocols, Methods in Molecular Biology (2003), 248: 389-415. In one exemplary experiment, TA106 Fab and derivative mAbs were captured on chips of a Biacore 3000 analyzer and samples of human factor B of different concentrations were flowed as the antigen over the surface to model soluble human factor B binding, using protocols recommended by the manufacturer (e.g., in the product brochure #BR-9003-31). All these referenced publications are hereby incorporated by reference in their entirety. […] Fab TA106 (Xoma, Lot#TTA1007, 20 mg/mL) was then flowed over one flow cell, followed by injections of human factor B on both flow cells. Concentrations (factor B) between 3.1-200 nM were run. The surface was regenerated between each cycle. […] The affinities of mAbs, i.e., CLS011, CLS012, and CLS013, were determined using a similar capture approach. In one exemplary experiment, human anti-Fc antibody was amine coupled to two flow cells of a CM5 chip. Each of the TA106-originated mAbs was then flowed over one flow cell, followed by injecting human factor B (3.1-200 nM) on both flow cells. […]

[3] = target: T1, human factor B (purified, Complement …); assay: SPR (Biacore 3000), mAb captured by anti-Fc antibody on CM5 chip, soluble human factor B 3.1-200 nM; filing calls this value not reliable (poor fits); poor fits; patent calls the value not reliable
Text: as §1

[4] = target: T1, human factor B (purified, Complement …); assay: BLI (Octet), binding to factor B (summary table)
Experimental: (§2) Binding kinetics of TA106 and TA106 S33A Fab (CLS016) to Factor B were analyzed using a FortéBio® Octet® biosensor (FortéBio, Inc.) in a similar protocol as described previously. In one exemplary experiment, Factor B (Complement Technology) was biotinylated at a 1:10 ratio and coupled to a streptavidin biosensor at a concentration of 5 μg/mL for a loading time of 600 seconds. Biosensors were briefly dipped in 1×KB as a wash for 30 seconds. Associations with a titration series of Fab with a concentration range from 100 to 3 nM (diluted in 1×KB) were carried out for 600 seconds. Fabs were dissociated from the biosensor by immersing the biosensor in 1×KB during the 600 second dissociation phase. As depicted in FIGS. 19 and 20, both TA106 Fab and TA106-derivative S33A Fab (CLS016) bound to Factor B at various concentrations, resulting in nearly identical association and dissociation profiles. Kinetic assessments using partial local fit parameters yielded identical values for KD/kₐ/Kd at each concentration tested.

[5] = target: T1, human factor B (purified, Complement …); assay: BLI (Octet), biotinylated factor B on streptavidin biosensor, Fab at 6.25 nM
Experimental: as §2

[6] = target: T1, human factor B (purified, Complement …); assay: SPR, factor B on surface, Fab flowed (summary table)
Text: (§3) Binding kinetics of TA106 Fab and variant S33A Fab (CLS016) were further characterized using Surface Plasmon Resonance (SPR) technology. In one exemplary experiment, both Fabs were captured on chips of a Biacore 3000 analyzer and samples of human factor B of different concentrations were flowed as the antigen over the surface to model soluble human factor B binding, using protocols recommended by the manufacturer and described previously in the instant disclosure. […] In another exemplary experiment, the affinities of both Fabs were also measured by reversing the orientation of the previous experiment. Specifically, human factor B was directly coupled to one flow cell of a CM5 chip. The second flow cell was used as a blank reference with no coupled ligand. CLS016 or TA106 Fab was then flowed on both flow cells. Concentrations between 0.19 to 25 nM were run with duplicates. The surface was regenerated between each cycle.

[7] = target: T1, human factor B (purified, Complement …); assay: SPR (Biacore), CLS016 Fab captured on anti-Fab surface, soluble factor B flowed; Chi2 0.155
Text: as §3

[8] = target: T1, human factor B (purified, Complement …); assay: SPR (Biacore), factor B coupled to the chip, free CLS016 Fab 0.19-25 nM flowed; Chi2 0.121
Text: as §3

[9] = target: T1, human factor B (purified, Complement …); assay: BLI (Octet), biotinylated factor B on streptavidin biosensor, Fab at 25 nM
Experimental: as §2

[10] = target: T1, human factor B (purified, Complement …); assay: SPR (Biacore), human factor B directly coupled to CM5 chip, Fab flowed at 0.19-25 nM
Text: as §3

[11] = target: T1, human factor B (purified, Complement …); assay: SPR (Biacore 3000), Fab captured on chip, soluble human factor B 3.1-100 nM
Text: as §3

[12] = target: T1, human factor B (purified, Complement …); assay: BLI (Octet), biotinylated factor B on streptavidin biosensor, Fab at 12.5 nM
Experimental: as §2

[13] = target: T1, human factor B (purified, Complement …); assay: SPR (Biacore), factor B coupled to the chip, free CLS016 Fab 0.19-25 nM flowed; Chi2 0.121 (the text rounds to 3.4 nM)
Text: as §3

[14] = target: T1, human factor B (purified, Complement …); assay: BLI (Octet), biotinylated factor B on streptavidin biosensor, Fab at 3.13 nM
Experimental: as §2

[15] = target: T1, human factor B (purified, Complement …); assay: BLI (Octet), biotinylated factor B on streptavidin biosensor, Fab at 100 nM
Experimental: as §2

[16] = target: T1, human factor B (purified, Complement …); assay: BLI (Octet), biotinylated factor B on streptavidin biosensor, Fab at 50 nM
Experimental: as §2

T1 sequence (P00751 26-764): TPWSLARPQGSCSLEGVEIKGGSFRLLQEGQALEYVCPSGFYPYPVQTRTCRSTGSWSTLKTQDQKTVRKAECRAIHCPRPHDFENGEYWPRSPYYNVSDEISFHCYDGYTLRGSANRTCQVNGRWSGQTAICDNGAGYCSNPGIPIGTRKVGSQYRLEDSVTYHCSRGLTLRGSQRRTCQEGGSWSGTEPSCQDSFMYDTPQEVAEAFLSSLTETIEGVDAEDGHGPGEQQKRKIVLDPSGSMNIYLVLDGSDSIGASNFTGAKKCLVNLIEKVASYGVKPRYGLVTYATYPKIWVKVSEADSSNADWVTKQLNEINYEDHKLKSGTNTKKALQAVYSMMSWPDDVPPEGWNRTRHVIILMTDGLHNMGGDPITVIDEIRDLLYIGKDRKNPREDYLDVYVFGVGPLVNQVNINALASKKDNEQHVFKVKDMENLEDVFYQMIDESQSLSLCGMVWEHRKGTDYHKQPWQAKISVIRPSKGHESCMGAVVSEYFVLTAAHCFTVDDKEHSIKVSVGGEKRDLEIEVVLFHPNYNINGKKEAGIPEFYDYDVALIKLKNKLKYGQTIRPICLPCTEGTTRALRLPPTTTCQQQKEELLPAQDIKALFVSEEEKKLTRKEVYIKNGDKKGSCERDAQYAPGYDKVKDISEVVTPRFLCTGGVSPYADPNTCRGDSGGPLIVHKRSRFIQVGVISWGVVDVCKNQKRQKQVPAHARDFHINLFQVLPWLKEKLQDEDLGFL

IC50 (read off the curve); lysis of rabbit red blood cells in 10% normal human serum [1]: ~20 nM
koff [2]: 0.00422 s⁻¹
kon [2]: 366000 M⁻¹ s⁻¹
Kd [3]: ~11.5 nM
B1: CLS012 (TA106-derivative N31Q variant, full-length IgG2/4 mAb, expressed in CHO cells) (antibody, V domains shown)
VH: EVQLVQSGAEVKKPGASVKVSCKASGYSFTDYYMTWVRQAPGQGLEWMGWINPNSGGTKYAQKFQGRVTMTRDTSISTAYMELSRLRSDDTAVYYCARGYYANSAWFAYWGQGTLVTVSS
VL: DIVMTQSPDSLAVSLGERATINCKSSQSLLQSSTSKNYLAWYQQKPGQPPKLLIYWASTRESGVPDRFSGSGSGTDFTLTISSLQAEDVAVYYCKQVYNLPWTFGQGTKLEIKR
modifications: N-linked glycans on the heavy chain constant region
notes: Human IgG2/4 full-length mAb; also called CLS012 mAb; TA106 variant N31Q

Kd [4]: 20 to 30 nM
Kd [5]: 41.9 nM
koff [5]: 0.00322 s⁻¹
kon [5]: 76900 M⁻¹ s⁻¹
Kd [6]: 2.6 nM
koff [7]: 0.00429 s⁻¹
kon [7]: 131000 M⁻¹ s⁻¹
koff [8]: 0.00466 s⁻¹
kon [8]: 1.38e+06 M⁻¹ s⁻¹
Kd [9]: 22.2 nM
koff [9]: 0.00392 s⁻¹
kon [9]: 177000 M⁻¹ s⁻¹
Kd [10]: ~3.4 nM
Kd [11]: ~32.8 nM
Kd [12]: 31.4 nM
koff [12]: 0.00353 s⁻¹
kon [12]: 112000 M⁻¹ s⁻¹
Kd [13]: 3.37 nM
Kd [14]: 28 nM
koff [14]: 0.00244 s⁻¹
kon [14]: 87300 M⁻¹ s⁻¹
Kd [15]: 13 nM
koff [15]: 0.00438 s⁻¹
kon [15]: 338000 M⁻¹ s⁻¹
Kd [16]: 21.5 nM
koff [16]: 0.00412 s⁻¹
kon [16]: 192000 M⁻¹ s⁻¹
B2: CLS016 (TA106-derivative S33A variant, IgG1 Fab, expressed in CHO cells) (Fab, V domains shown)
VH: QVQLVQSGAEVKKPGASVKVSCKASGYSFTDYYMTWVRQAPGQGLEWMGWINPNSGGTKYAQKFQGRVTMTRDTSISTAYMELSRLRSDDTAVYYCARGYYANSAWFAYWGQGTLVTVSS
VL: DIVMTQSPDSLAVSLGERATINCKSSQSLLNSATSKNYLAWYQQKPGQPPKLLIYWASTRESGVPDRFSGSGSGTDFTLTISSLQAEDVAVYYCKQVYNLPWTFGQGTKLEIKR
notes: IgG1 Fab of the S33A variant, made in CHO cells; also called TA106 S33A Fab; TA106-derivative S33A Fab
